# T1: human VTCN1 expressed on cells (293-VTCN1 cells; SKBR3, MX-1 and ZR-75-1 cells that express it naturally) (human, UniProt Q7Z7D3 25-282)
# T1 construct: The cDNA was bought from Origene
# T1 sequence: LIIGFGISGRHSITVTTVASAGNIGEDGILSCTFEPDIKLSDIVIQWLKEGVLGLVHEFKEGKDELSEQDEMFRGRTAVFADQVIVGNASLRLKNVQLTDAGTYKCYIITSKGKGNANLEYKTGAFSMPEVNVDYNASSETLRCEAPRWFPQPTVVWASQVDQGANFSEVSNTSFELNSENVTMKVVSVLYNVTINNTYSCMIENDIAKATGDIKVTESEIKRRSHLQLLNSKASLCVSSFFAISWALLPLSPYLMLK
# Biological target: T1, human VTCN1 expressed on cells …
# Assay: flow cytometry on live 293-VTCN1 and MX-1 cells, 0.05-10 ug/ml
# Protocol: Antibody concentration was determined by OCTET™ using protein G biosensor. 0.05 μg/ml, 0.1 μg/ml, 0.5 μg/ml, 1 μg/ml, 5 μg/ml, 10 μg/ml antibodies were incubated with live cells for 30 min. on ice, unbound antibodies were washed off, and a conjugated anti-mouse 2nd antibody was added to the wells for 15 min. Cells were washed twice with flow buffer and analyzed using MACSQuant Analyzer 10 flow cytometer (Miltenyi Biotec, Bergisch Gladbach, Germany).
row,Binder,binding result
1,"7C9 (antibody, V domains shown, Recombinant mouse antibody made in CHO cells) VH: QIQLQESGPGLVQPSQSLSITCTVSGFSLTSYGVQWVRQSPGKGLEWLGVIWSSGSTDYNAAFISRLSISKDNSKSQVFFKMNSLQADDTAIYYCARDITTIVEGFAYWGQGTLVTVSA VL: NIVMTQSPKSMSMSVGERVTLRCKASENVNTYVSWYQQKPEQSPKLLIYGASNRYTGVPDRFTGSGSATDFTLTISSVQAEDLADYHCGQSYSYPFTFGSGTKLEIK",binds
2,"1A2 (antibody, V domains shown, Recombinant mouse antibody made in CHO cells) VH: QVQLQQSGPGLVQPSQSLSITCTVSGFSLTSYGVHWVRQSPGKGLEWLGVIWSGGSTDYNAAFISRLSISKDNSKSQVFFKMNSLQADDTAIYYCARDITTIVEGFAYWGQGTLVTVSA VL: NIVMTQSPKSMSMSVGERVTLSCKASENVGTYVSWYQQKPEQSPKLLIYGASNRYTGVPDRFTGSGSATDFTLTISSVQAEDVTDYHCGQTYSYPFTFGSGTKLEIK",binds
3,"1C3 (antibody, V domains shown, Recombinant mouse antibody made in CHO cells) VH: QIQLQQSGPGLVQPSQSLSITCTVSGFSLTSYGVQWVRQSPGKGLEWLGVIWSSGNTDYNAAFISRLTITKDNSKSQIFFKMNSLQADDTAIYYCARDITTIVEGFAYWGQGTLVTVSA VL: NIVMTQSPKSMSMSVGERVTLSCKASENVGTYVSWYQQKPEQSPKLLIYGASNRYTGVPDRFTGSGSATDFTLTISSVQAEDLADYHCGQTYSYPFTFGSGTKLEIK",binds
4,"3C6 (antibody, V domains shown, Recombinant mouse antibody made in CHO cells) VH: QIQLQESGPELKKPGETVKISCKASGYTFTTTGMQWVQKMPGKGFKWIGWINTHSGEPKYADDFKGRFAFSLETSASTAHLQISNLKNEDTATYFCARTSYWYLDVWGAGTTVTVSS VL: DIVMTQSQKFMSTSVGDRVSVTCKASQIVGTNIAWYQQKPGQSPKALIYSASYRNSGVPDRFTGSGSGTDFTLTITNVQSEDLAEYFCQQYNSYPLTFGAGTKLEIK",binds
5,"7E12 (antibody, V domains shown, Recombinant mouse antibody made in CHO cells) VH: QVQMKESGPELKKPGETVKISCKASGYTFTTTGMQWVQKMPGKGFKWIGWINTHSGEPKYADDFKGRFAFSLETSASTAHLQISNLKNEDTATYFCARTSYWYLDVWGAGTTVTVSS VL: DIVMTQSQKFMSTSVGDRVSVTCKASQIVGTNIAWYQQKPGQSPKALIYSASYRNSGVPDRFTGSGSGTDFTLTITNVQSEDLAEYFCQQYNSYPLTFGAGTKLEIK",binds

# Further lines, results first:
row,binding result,Binder
1,binds,"4B9 (antibody, V domains shown, Recombinant mouse antibody made in CHO cells) VH: EVQLQESGPGLVQPSQSLSITCTVSGFSLTSYGVHWVRQSPGKGLEWLGVIWSSGSTDYNAAFISRLSISKDNSKSQVFFKIHSLQADDTAIYYCARDITTIVEGFAYWAQGTLVTVSA VL: NIVMTQSPKSMSMSVGERVTLICKASENVGTYVSWYQQKPEQSPKLLIYGASNRYTGVPDRFTGSGSATDFTLTISSVQAEDLADYHCGQTYSYPFTFGSGTKLEIK"
2,binds,"7D9 (antibody, V domains shown, Recombinant mouse antibody made in CHO cells) VH: QIQLKESGPGLVQPSQSLSITCTVSGFSLTSYGVQWVRQSPGKGLEWLGVIWSGGSTDYNAAFISRLSISKDNSKSQVFFKMNSLQADDTAIYYCARDITTIVEGFAYWAQGTLVTVSA VL: NIVMTQSPKSMSMSVGERVTLSCKASENVGTYVSWYQQKPEQSPKLLIYGASNRYTGVPDRFTGSGSATDFTLTISSVQAEDLADYHCGQTYSYPFTFGSGTKLEIK"
3,binds,"2C2 (antibody, V domains shown, Recombinant mouse antibody made in CHO cells) VH: QIQLQQSGPELKKPGETVKISCKASGYTFTTAGMQWVQKMPGKGFKWLGWINTHSGEPKYADDFKGRFAFSLETSASTAYLQINNLKNEDTATYHCARTSYWYLDIWGAGTTVTVSS VL: DIVMTQSQKFMSTSVGDRVSVTCKASQNVGTNVAWYQQKPGQSPKALIYSASYRCSGVPDRFTGSGSGTDFTLTISNVQSEDLAEYFCQQYNSYPLTFGAGTKLEIK"
